Data on one protein can be found in publication PMC3500661 (Biochemistry, 2012).

This data set concerns the molecule itself. In words: NMR solution structure.

B1: Mycobacterium tuberculosis NmtR (apo-state, homodimer) (natural protein)
chain: GHGVEGRNRPSAPLDSQAAAQVASTLQALATPSRLMILTQLRNGPLPVTDLAEAIGMEQSAVSHQLRVLRNLGLVVGDRAGRSIVYSLYDTHVAQLLDEAIYHSEHLHLGLSDRHPSAG
B1: the binding result is “binds”.
